The supplement of paper PMC9732359
± gives the uncertainty stated by the source.

Assay: protein stability index of a GFP-peptide fusion (yeast GPS) (PSI 1-4); higher = more stable; sorted into four equal gates, so the index is relative within each strain
In short: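 The protein stability index of a peptide was calculated by multiplying its read frequency in each gate by that gate's number and adding the products. The peptides were tiled 17-residue stretches of yeast proteins, fused downstream of GFP on a Cherry-expressing plasmid and carried in yeast as a pooled library. Mid-log cultures in leucine-free medium were sorted into four equal gates by GFP/Cherry ratio, and each gate's plasmids were PCR-amplified and Illumina-sequenced.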

Sequence | protein stability index (doa10∆) | protein stability index (pdr5∆) | protein stability index (san1∆) | protein stability index (ubr1∆)
TVSPDFVAATTNAGYTI [FAS1] | 2.71 ± 0.065 | 2.71 ± 0.053 | 2.32 ± 0.12 | 2.56 ± 0.058
NYLRQQCNYSSLVFNRK [PRE5] | 2.71 ± 0.17 | 2.94 ± 0.11 | – | 2.75 ± 0.088
HRTIVIRRAYLHYIPKY [RPS11A] | 1.87 ± 0.048 | 1.55 ± 0.042 | 1.84 ± 0.07 | 1.74 ± 0.031
NVNKKALGQDTEKMEEQ [MED11] | 2.88 ± 0.059 | 2.94 ± 0.055 | 2.88 ± 0.034 | 3.04 ± 0.05
WIQVFGLRTENVLDYFA [MED6] | – | – | 2.38 ± 0.14 | 2.34 ± 0.067
RRRDGVFLYFEDNAGVI [RPL23A] | 2.68 ± 0.13 | 2.83 ± 0.069 | 2.37 ± 0.11 | 2.9 ± 0.056
LRLFNAPDSEYLCFILS [SNF2] | 2.28 ± 0.044 | 2.17 ± 0.044 | 2.15 ± 0.042 | 1.94 ± 0.031
KDHLLGRLASTIAKQVL [RPL16B] | 1.66 ± 0.085 | 1.57 ± 0.092 | 1.25 ± 0.14 | 1.3 ± 0.066
VTKEYFQDVYDLTGSEP [FAS1] | 2.53 ± 0.23 | 2.82 ± 0.078 | 1.43 ± 0.18 | 2.68 ± 0.092
NNRMGSYDCTGVNELAP [POP1] | 2.63 ± 0.099 | 2.42 ± 0.076 | 2.74 ± 0.085 | 2.79 ± 0.059
IGDKFASRHGQKGTIGI [RPB2] | 1.34 ± 0.07 | 1.96 ± 0.047 | 1.57 ± 0.16 | 1.1 ± 0.041
KYLEQVLDHQRAIPFRR [RPL17A] | 2.52 ± 0.059 | 2.35 ± 0.055 | 1.61 ± 0.083 | 1.78 ± 0.043
RLRQFNLQPISTPENVP [SMC4] | 1.69 ± 0.081 | 1.76 ± 0.067 | 1.61 ± 0.14 | 1.73 ± 0.052
NTAFGNSNPTSNVFGSN [YJL041W/NSP1] | 3.06 ± 0.13 | 3.6 ± 0.17 | – | 3.6 ± 0.16
IDELIDTKLRLEKSKNE [YIL149C/MLP2] | 2.62 ± 0.047 | 2.81 ± 0.045 | 2.8 ± 0.04 | 2.8 ± 0.032
FGSADDTYPYLTGEWST [FAS1] | 2.32 ± 0.067 | 1.32 ± 0.047 | 1.21 ± 0.086 | 1.28 ± 0.072
DRAIRKTCQWYSEHLKP [DIS3] | 3.17 ± 0.089 | 3.1 ± 0.096 | 3.01 ± 0.07 | 3.3 ± 0.12
PNSNVELAGGNASLTIE [SMC1] | 2.91 ± 0.091 | 3.06 ± 0.2 | 2.95 ± 0.071 | 3.04 ± 0.27
RYVNLLGVTYSSPTLAT [PRE4] | 1.12 ± 0.11 | 1.35 ± 0.13 | 1.47 ± 0.17 | 1.1 ± 0.12
VAIDQDKITLHDEKTLA [SIR4] | 2.01 ± 0.097 | 2.22 ± 0.096 | 2.26 ± 0.17 | 2.71 ± 0.08
IRGILMASGSTTFTKVA [PRP8] | 2.76 ± 0.063 | 2.02 ± 0.1 | 2.02 ± 0.16 | 2.15 ± 0.088
KVAEVKKLEGTIEYQKL [RPT4] | 3.13 ± 0.12 | 3.16 ± 0.11 | 3.17 ± 0.074 | 3.57 ± 0.082
DQLLTDLIETSFTCFAQ [NUT1] | 2.56 ± 0.093 | 1.9 ± 0.076 | 1.88 ± 0.11 | 2.91 ± 0.074
QFKKLTHAQRTGLSQIP [PRP8] | 2.05 ± 0.11 | 2.46 ± 0.1 | 2.12 ± 0.14 | 2.53 ± 0.12
VVDGTVVSCSQHGFEVQ [RPB7] | 3.08 ± 0.071 | 3.11 ± 0.058 | 3.13 ± 0.068 | 3.28 ± 0.07

Sequence | protein stability index (doa10∆) | protein stability index (pdr5∆) | protein stability index (san1∆) | protein stability index (ubr1∆)
EYSPEILQIREEIPSKS [RRP6] | 2.66 ± 0.068 | 2.79 ± 0.08 | 2.54 ± 0.072 | 2.88 ± 0.044
HLVWMKGTNDEGTSISV [YCS4] | 1.84 ± 0.11 | 2.23 ± 0.086 | 1.9 ± 0.18 | 2.2 ± 0.17
ELNQDRLGGDDLRIRIK [SNF5] | 3.31 ± 0.11 | 3.36 ± 0.19 | 3.21 ± 0.12 | 2.91 ± 0.15
VASLSKRNKLLTIFDSV [YJL039C/NUP192] | 1.98 ± 0.059 | 1.93 ± 0.048 | 2.28 ± 0.063 | 1.89 ± 0.048
LLEGLNEKIEKRSDLTG [UBP6] | 2.89 ± 0.092 | 3.11 ± 0.063 | 3.18 ± 0.081 | 3.32 ± 0.098
GVNGYIWLRKTSQMDLA [RRP4] | 3.07 ± 0.077 | 2.74 ± 0.068 | 3.07 ± 0.097 | 2.9 ± 0.098
PTFTFGSSALADNKEDV [YLR335W/NUP2] | 3.13 ± 0.074 | 3.06 ± 0.049 | 3.06 ± 0.041 | 3.09 ± 0.033
ISQLYSDAVMAEHSQNK [YJL041W/NSP1] | 2.99 ± 0.079 | 2.83 ± 0.081 | 2.75 ± 0.096 | 2.81 ± 0.088
LKEVLYNDSATSGEAAA [RPN2] | 1.45 ± 0.057 | 1.52 ± 0.063 | 1.86 ± 0.11 | 1.28 ± 0.056
PEREVLVRELYQWRDLI [RRP6] | 2.91 ± 0.057 | 2.78 ± 0.07 | 2.67 ± 0.066 | 2.58 ± 0.049
DTFRWVGKKSAPEKDIW [RPO31] | 2.79 ± 0.095 | 2.88 ± 0.11 | 2.9 ± 0.067 | 3.15 ± 0.061
LREHFKNTEEGKALVHH [QCR6] | 2.87 ± 0.11 | 3.23 ± 0.1 | 3.34 ± 0.057 | 3.09 ± 0.099
LANNVESKLRDDLERLK [RPS18A] | 3.45 ± 0.16 | 3.27 ± 0.16 | 2.97 ± 0.24 | 3.41 ± 0.049
LPRYQELTKEEAMYKLQ [SMC3] | 3.02 ± 0.12 | 3.18 ± 0.087 | 3.43 ± 0.092 | 3.04 ± 0.073
QDLNQRFQDPYVAIVVD [RRI1] | – | 2.79 ± 0.11 | 2.29 ± 0.15 | 2.71 ± 0.12
LNVVMKNLERLRGEYND [SMC4] | 3.26 ± 0.092 | 3.49 ± 0.11 | 3.37 ± 0.068 | 3.66 ± 0.13
PKVSAGDSGISPEESKA [SIR4] | 3.44 ± 0.1 | 3.46 ± 0.13 | 2.98 ± 0.098 | 3.17 ± 0.059
ASNEVIAKSRYWYFLQK [RPL20A] | 2.19 ± 0.054 | 2.66 ± 0.066 | 2.58 ± 0.063 | 2.72 ± 0.058
FTNVLTKYSDVLGFLQL [YJL039C/NUP192] | 2.59 ± 0.072 | 2.07 ± 0.071 | 2.85 ± 0.053 | 2.01 ± 0.052
LFAFNGVARNFHFAIEQ [SIN4] | 3.01 ± 0.14 | 2.8 ± 0.079 | 2.55 ± 0.069 | 3.06 ± 0.064
IQSKAVEQGYEDAFNFW [YCG1] | 3.37 ± 0.13 | 3.33 ± 0.17 | 3.57 ± 0.12 | –
VAEIEKTADVKRQYVKQ [RPL20A] | 3.33 ± 0.13 | 3.2 ± 0.088 | 2.94 ± 0.13 | 3.1 ± 0.079
QEESFSLNLGIGIVEIA [SRB8] | 1.33 ± 0.11 | 1.79 ± 0.088 | 2.08 ± 0.29 | 1.89 ± 0.094
DRSKLKKGVRVTLDITT [RPT4] | – | 2.87 ± 0.2 | 2.4 ± 0.089 | 2.57 ± 0.14
MSGAAAASAAGYDRHIT [SCL1] | 3.08 ± 0.24 | 2.87 ± 0.16 | 3.27 ± 0.12 | 2.94 ± 0.14
